Results on 1 molecule are retold here after US20030104443A1, “AFAP sequences, polypeptides, antibodies and methods” (University of West Virginia, priority 2001, published 2003).

One experiment has as its system F-actin. As to the kind of experiment: Actin binding assay (high-speed copelleting, 150,000×g). The protocol: G-actin was polymerized to F-actin at 5 mM Tris-HCl, pH 8.0, 0.2 mM CaCl2, 0.5 mM DTT, 5 mM MgCl2, and 2 mM ATP at room temperature (RT) for 1 h. Different concentrations of rAFAP-110 were incubated with 2 μM F-actin in 5 mM MgCl2, 1 mM EGTA, 2 mM ATP, 50 mM KCl at RT for 30 min. The reactions were centrifuged at 150,000×g for 1 h at 4° C., and then both pellets and supernatants were collected and analyzed by SDS-PAGE gel.
(§1) Binding constants were derived from the sedimentation of rAFAP-110 by actin. Accordingly, rAFAP-110 in the pellet and supernatant correspond to the bound and free rAFAP-110, respectively. The sum of densities of rAFAP-110 bands in the supernatant and pellet corresponds to the total mass of rAFAP-110 in the sample. The data representing the bound rAFAP-110 as a function of free rAFAP-110 were fit by nonlinear least squares to both the Langmuir (B=BMAX/(1+Kd/F)) and […] 2 μM F-actin filaments and different concentrations of rAFAP-110 in 5 mM MgCl2, 1 mM EGTA, 2 mM ATP, and 50 mM KCl at 20,800×g for 30 min at 4° C. After the centrifugation, both supernatant and pellets were analyzed by SDS-PAGE gel. Confocal microscopy assays were performed as described (Ishikawa et al., 1998, J. Biol. Chem., 273:26991-26997). Briefly, 2 μM F-actin containing 10% rhodamine-phalloidin-labeled F-actin were mixed with different concentrations of rAFAP-110 or other purified recombinant proteins in 5 mM MgCl2, 1 mM EGTA, 2 mM ATP, and 50 mM KCl at RT for 30 min. After the incubation, the reactions were applied between glass slides and coverslips and observed under confocal microscopy (Zeiss, Oberkochen, Germany). Samples for negative staining were adsorbed to grids coated with nitrocellulose and stabilized with carbon (Ernest F. Fullam, Latham, N.Y.). Unbound protein was removed by successive washes with buffer and water before staining with 1% uranylacetate (Cooper and Pollard, 1982, Methods Enzymol., 85(PtB), 182-210; Pollard and Cooper, 1982, Methods Enzymol., 85(PtB), 211-233).
The purified rAFAP-110 was incubated with actin filaments. The negative staining image was taken at 16,000 magnification. Black arrows indicate rAFAP-110 aggregates; and white arrow indicates actin filaments. […] The electron micrographs indicate that rAFAP-110 binds to the sides of actin filaments, which was supported by the fact that one mole of actin in filaments bound up to 1.7 mol of rAFAP-110 (FIG. 7C). FIG. 7C is a graph of bound rAFAP-110 versus free rAFAP-110. rAFAP-110 at 0.18,0.29,0.70, 1.34,2.63,3.73,4.67, 5.11,5.34,5.48, and 5.66 μM was incubated with 2 μM concentration of G-actin polymerized into actin filaments and were then centrifuged at 150,000×g. Both supernatants (S) and pellets (P) were applied to SDS-PAGE gel, followed by Coomassie staining. Density of AFAP-110 determined by scanning densitometry was fit as described.

The target of a further experiment is T1, recombinant PKCα (Homo sapiens, UniProt P17252).
T1 construct: purchased CalBiochem
The experiment can be described thus: In vitro PKC kinase assay. In kind it is biochemical. Conditions: 10 μg rAFAP-110, 0.5 μg PKCα, radiolabeled ATP; FIG. 10A. The protocol: PKC kinase assays were carried out according to Current Protocols in Molecular Biology (Carter, 1997). Briefly, 10 μg rAFAP-110 purified as mentioned above was incubated at 30° C. for 30 min with 0.5 μg recombinant PKCα in reaction buffer (20 mM Tris, pH 7.5, 5 mM MgCl2, 0.2 mM CaCl2, 20 μg/ml phosphatidylserine, and 2 μg/ml diolein) to which 1 μCi [γ-^32P]ATP was added. Reactions were analyzed by SDS-PAGE.

For experiment [1], the system named is actin filaments. As to the kind of experiment: Low-speed cosedimentation assay (20,800×g), actin filament cross-linking. In kind it is biochemical.
Excerpt: as §1
Actin filaments are unable to efficiently pellet at 20,800×g unless cross-linked to form heavier particles (either isotropic networked or bundled actin filaments; Cooper and Pollard, 1982, supra; Pollard and Cooper, 1982, supra; Meyer et al., 1990, J. Cell. Biol. 110:2013-2024; Wachsstock et al., 1993, Biophys. J., 65: 205-214; Rybakova et al., 1996, J. Cell. Biol., 135:661-672). […] The purified recombinant proteins were incubated with actin filaments and then were centrifuged at 20,800×g. Both supernatants (S) and pellets (P) were applied to SDS-PAGE gel, followed by Coomassie staining. 1, rAFAP-110 with actin filaments; 2, rAFAP-110^Δcterm with actin filaments; 3, rAFAP-110 only; 4, rAFAP-110^Δcterm only; 5, actin filaments only. FIG. 8B is a graph of cross-linked actin filaments versus free rAFAP-110. rAFAP-110 at 0.05,0.11,0.21,0.43, 0.86, and 2.14 μM was incubated with the 2 μM concentration of G-actin polymerized into actin filaments. After the incubation, the reactions were centrifuged at 20,800×g. Both supernatants and pellets were applied to SDS-PAGE gel, followed by the Western blot analysis to detect rAFAP-110 and Coomassie blue staining to detect actin, respectively. The data of cross-linked actin filaments and free rAFA-110 were gathered by scanning densitometry of SDS-PAGE gel analysis.

Experiment [2] has as its system actin filaments. The experiment can be described thus: Confocal microscopy of rhodamine-phalloidin-labeled actin filaments. In kind it is biochemical.
Excerpt: as §1
To further test AFAP-110's capability to cross-link actin filaments, we analyzed rhodamine-phalloidin-labeled actin filaments for cross-linking by confocal microscopy. In FIG. 9A, purified rAFAP-110 or rAFAP-110^Δcterm were incubated with rhodamine-phalloidin-labeled actin filaments. […] 1, actin filaments only; 2, rAFAP-110 with actin filaments; 3, rAFAP-110^Δcterm with actin filaments. FIG. 9B presents confocal microscopy images. Different concentrations of α-actinin (top two panels, low=0.0625 μM and high=1.25 μM) and rAFAP-110 (bottom two panels, low=0.106 μM and high=2.1 μM) were incubated with rhodamine-phalloidin-labeled actin filaments. […] Actin filaments labeled with rhodamine-phalloidin appeared uniformly fluorescent in the absence of an actin binding protein (FIG. 9A1). […] Electron microscopy was used to confirm rAFAP-110's ability to cross-link actin filaments.

The mark [3] stands for this setting: least-squares fit to Hill equation, 2 μM F-actin, FIG. 7C.
The mark [4] stands for this setting: second experiment, Hill equation.
Setting [5] is: least-squares fit to Hill equation, 2 μM actin, FIG. 8B.

B1: rAFAP-110: Recombinant AFAP-110 purified after production as a GST bacterial fusion protein, using the PreScission Protease system (protein, UniProt Q90738 1-729, looked up)
Actin filament-associated …: MEELIVELRLFLELLDHEYLTSTVREKKAVITNILLRIQSSKGFEIKEHVQKPEVANSLPAPPQMPLPEIPQQWLPPDNGPPPLPTSSLPEGYYEEAVPVSPGKAPEYITSNYDSDAMSSSYESYDEEEEDGKGKKMRHQWPSEEASMDLVKDAKICAFLLRKKRFGQWTKLLCVIKENKLLCYKSSKDQQPQMELLLNDCSITYIPKDSKKKKHELKISHQGADALVLAVQSKEQAEQWLKVIKDVCSNCTGTVDSDGPLSSSPVHKTELEKKLSSERPSSDGEGAVENGITTVCNGKEQVKRKKSSKTEAKGTVTKVTGKKITKIIGLGKKKPSTDEQTSSAEEDVPTCGYLNVLSNNRWRERWCRVKDNKLIFHKDRTDLKTHIVSIPLRGCEVIPGLDSKHPLTFRLLRNGQEVAVLEASSSEDMGRWIGMLLAETGSSTDPGALHYDYIDVEMTASVIQAAKQTFCFMNRRVISTNPYRGSTANGYACPSGMALHYDDVPCINGSFKGKKPPATANGITGKVRTLNSQPKKPESVSCVKRTASNAEQYKYGKNRVEAVAKRLQSKEEELLKRKEALRNRLAQLRKERKDLRAAIEVNAGRKTQVILEDKLKKLEEECKTKEAERVNLELELTEVKESLKKALAGGITLGLAIEPKSGTSSPQSPIFKHRTLENSPISSCDTSDTECSIPVNSAAALKRPPSSNNSPCRGHVLRKAKEWEMKNGT
By Kd is commonly meant the constant that tells how readily two partners part at equilibrium. Regarding B1, in the experiment on F-actin (150,000×g for 1 h, FIG. 7A), the “direct binding to actin filaments” value was “bind to actin filaments directly”. The “rAFAP-110 bound per one mole of actin in filaments” value in the experiment with F-actin (FIG. 7C) was “up to 1.7 mol”. Further, the results for the BMAX in the experiment with F-actin (setting [3]) and with F-actin (setting [4]) were 4.2 µM and 1.5 µM, respectively. Further, the Kd was found to be 0.29 µM on F-actin (setting [3]); 0.24 µM on F-actin (setting [4]); 0.26 µM at actin filaments [1] (least-squares fit to Hill equation, 2 μM actin, FIG. 8B, read-out: Kd (cross-linked actin filaments versus free rAFAP-110)). Besides, in the experiment with recombinant PKCα, the “phosphorylation by PKCα in vitro” value is on record as “phosphorylates”. Besides, the “actin cross-linked and sedimented at saturation” value in the experiment with actin filaments [1] (1.63 μM/2.0 μM total actin) came out at 81.5%. For the same molecule, the EC50 with actin filaments [1] (2 μM actin, FIG. 8B, read-out: half maximal cross-linking) worked out at 0.26 µM. Besides, the “sedimentation of actin filaments at low speed” value in the experiment on actin filaments [1] (20,800×g, FIG. 8A) is on record as “efficiently sedimented”. In the experiment with actin filaments [1] (setting [5]), the “BMAX (cross-linked actin filaments)” value stood at 1.63 µM. Moreover, in the experiment with actin filaments [1] (setting [5]), the “n (Hill equation, cross-linking)” value turned out to be 1.7. The “confocal fluorescence pattern of actin filaments” value with actin filaments [2] (FIG. 9A, rAFAP-110 at 1.3 μM) was “organized into a lacy pattern of swollen and interconnected fluorescent tubes”. Besides, in the experiment with actin filaments [2] (α-actinin 0.0625 μM, rAFAP-110 0.105 μM, FIG. 9B), the “organization of actin filaments at low concentration” value is “did not change the organization of actin filaments”. Also, the “organization of actin filaments at high concentration” value in the experiment with actin filaments [2] (α-actinin 1.25 μM, rAFAP-110 2.1 μM, FIG. 9B) was “caused some aggregation of actin filaments into large branched structures”.
